In one assay the test system is Mr 50,000 protein. Briefly: Mr 50,000 protein assay (hydrogen peroxide colorimetric). Format: biochemical, Trichoderma sp. The conditions noted are these: hydrogen peroxide formation monitored. As to the method: Hydrogen peroxide appears to be the byproduct of the Mr 50,000 protein reaction. The formation of hydrogen peroxide was monitored by a colorimetric assay (Gallo, 1981). P2C was prepared by two separate methods for the initial Mr 50,000 protein assay. The two methods used for preparing P2C were
1) L-lysine with lysine oxidase and catalase; and
2) DL-pipecolic acid with D-amino acid oxidase and catalase.
P2C was isolated from the protein mixture by filtration using an Amicon filter (10 kDa cutoff) before using in the Mr 50,000 protein assay.

A further assay deals with T. viride lysine oxidase. As to conditions: data from Kusakabe et al., 1980; cited from earlier work.
The next assay concerns F22844 lysine oxidase. Briefly: Substrate specificity of F22844 lysine oxidase. As to conditions: lysine = 100, L-isomers. Format: biochemical, Trichoderma sp.
The subject of assay [1] is proteases present in the midgut of southern corn rootworm. Briefly: Activation of LO69 proenzyme by midgut extract. In kind it is biochemical. The text has this: The lysine oxidase gene encodes a 69 kDa proenzyme which is N-terminally cleaved when expressed in Trichoderma or Saccharomyces to yield a mature and enzymatically active protein of approximately 60 kDa. To determine if the lysine oxidase-69 (LO69) proenzyme (Seq ID NO: 46) expressed in corn protoplasts can be activated by the proteases present in the midgut of southern corn rootworm, midguts were dissected from late instar larvae and the proteases extracted. Protease activity assays confirmed the presence of proteases in this extract. This extract and appropriate controls were incubated for about 22 hours at 25° C. with extracts from protoplasts electroporated with pMON25040 (i.e. the CaMV35S promoter and hsp70 intron fused to the 1.9 kb lysine oxidase gene encoding the Mr 69,000 proprotein, SEQ ID NO:45) and non-electroporated controls and assayed for lysine oxidase activity.

The test system of assay [2] is southern corn rootworm larvae. In words: Diet overlay assay with SCRW. In kind it is in vivo. As to conditions: for Av. Wght: Tris control 2.6. From the text:
However, ingestion of LO69 expressing root tissue by CRW is likely to result in activation of lysine oxidase by proteolysis and subsequent insecticidal activity when the tedanalactam synthase protein is also present. […] The absence of LO activity in the proenzyme sample was confirmed by direct enzymatic assays just prior to exposure to insects.

For another assay, the system named is southern corn rootworm. In words: Southern corn rootworm artificial diet bioassay. In kind it is in vivo. As to the method: These proteins were then purified by sizing and ion exchange chromatography. […] In both cases, no bioactivity was detected when the proteins were assayed individually but significant stunting was seen when the proteins were combined in assay.
Native-PAGE studies were effective in confirming that the Mr 56,000 and Mr 50,000 proteins were responsible for the southern corn rootworm bioactivity of F22844. The chromatographically purified Mr 56,000 and Mr 50,000 proteins were further purified by native PAGE. […] A sample containing a combination of the two proteins at concentrations of 9.7 μg/mL of Mr 56,000 and 2.5 μg/mL of Mr 50,000 yielded 89% stunting of corn rootworm larvae (Table 3). […]
(§1) These leads were not characterized further. […] Lysine oxidase from Trichoderma viride is available commercially from Sigma (St. Louis, Mo.). The enzyme was purified to a single band from this preparation and bioassayed against southern corn rootworm. Bioassays were conducted to compare the concentration responses of the T. viride lysine oxidase (±Mr 50,000 protein from F22844) with the lysine oxidase purified from F22844. The bioactivity of the T viride lysine oxidase agrees very well with the bioactivity of lysine oxidase from F22844 when bioassayed in the presence of tedanalactam synthase from F22844 (Table 10). Very similar stunting levels are seen at equivalent doses (compare Table 10 to Table 7). In addition, no bioactivity is seen with either lysine oxidase in the absence of tedanalactam synthase from F22844.
An NcoI-HindIII fragment containing the full length tedanalactam synthase cDNA gene (SEQ ID NO:40) from pMON25424 was interested into pMON6235, an E. coli expression vector containing an arabinose inducible promoter and G10 leader sequence to produce pMON25428 (FIG. 12). […] The relative migration of the expressed protein on SDS-PAGE was identical to the F22844 purified tedanalactam synthase. The recombinant tedanalactam synthase was purified in a 5 step procedure from E. coli expressing the tedanalactam synthase gene. Lysine oxidase was purified from a commercial preparation of T. viride lysine oxidase. Both the lysine oxidase and tedanalactam synthase were >95% pure by SDS-PAGE.

A further assay relates to corn rootworm. Briefly: Corn rootworm bioassay (species not stated). As to conditions: Table 11, yeast recombinant lysine oxidase 14 ppm, F22844 Mr 50,000 10 ppm, alone or combined. In kind it is in vivo, Diabrotica spp. As to the method: as §1
Yeast (Saccharomyces cerevisiae) transformed with pMON25030 were grown in the presence of galactose and shown to produce enzymatically active lysine oxidase. Yeast transformed with pMON25030 had soluble lysine oxidase activity in both disrupted cell pellets and cell free culture media. […] Lysine oxidase from the yeast culture media was subsequently purified and shown to have bioactivity against corn rootworm when combined with tedanalactam synthase.

[3] abbreviates: each protein at 2 ppm, of larval weight vs control.
The mark [4] stands for this setting: single protein at 10 ppm, 50 kD activity ascribed to low level LO contamination.

With `O=C(O)C1CCCCN1` (stereo not shown) [Pipecolic acid], the “substrate of Mr 50,000 protein” value in the assay on Mr 50,000 protein is “not substrates”.

As to `O=C(O)C1CCCC=N1` (stereo not shown) [P2C, Δ^1-piperideine-2-carboxylate], the “substrate of Mr 50,000 protein” value in the assay on Mr 50,000 protein is given as “catalyses the conversion of Δ^1-piperideine-2-carboxylate (P2C) to product I”.

For `N=C(N)NCCC[C@H](N)C(=O)O` [Arginine], the “Relative activity (%)” value is listed as 6.1% in the assay on T. viride lysine oxidase and 2.6% in the assay with F22844 lysine oxidase.

For `N[C@@H](Cc1ccccc1)C(=O)O` [Phenylalanine], the “Relative activity (%)” value in the assay on T. viride lysine oxidase was 8.3%; in the assay on F22844 lysine oxidase, 6.6%.

On to `NCCC[C@H](N)C(=O)O` [Ornithine], for which the “Relative activity (%)” value in the assay on T. viride lysine oxidase is 18.2%; in the assay with F22844 lysine oxidase, 10.8%.

Turning to `N[C@@H](Cc1c[nH]cn1)C(=O)O` [Histidine], the figures for the “Relative activity (%)” value in the assay on T. viride lysine oxidase and with F22844 lysine oxidase were 3.8% and 5.0%, respectively.

For the molecule `NCCCC[C@H](N)C(=O)O` [Lysine], the “substrate of Mr 50,000 protein” value in the assay with Mr 50,000 protein was “not substrates”. Further, the “Relative activity (%)” value is listed as 100% in the assay with T. viride lysine oxidase and 100.0% with F22844 lysine oxidase.

B1: LO69: 69 kDa lysine oxidase proenzyme (SEQ ID NO: 46); corn protoplast extract in Table 20, purified from Saccharomyces cerevisiae in Table 21 (protein)
chain: MDNVDFAESVRTRWARRLIREKVAKELNILTERLGEVPGIPPPNEGRFLGGGYSHDNLPSDPLYSSIKPALLKEAPRAEEELPPRKVCIVGAGVSGLYIAMILDDLKIPNLTYDIFESSSRTGGRLYTHHFTDAKHDYYDIGAMRYPDIPSMKRTFNLFKRTGMPLIKYYLDGENTPQLYNNHFFAKGVSDPYMVSVANGGTVPDDVVDSVGEKLQQAFGYYKEKLAEDFDKGFDELMLVDDMTTREYLKRGGPKGEAPKYDFFAIQWMETQNTGTNLFDQAFSESVIDSFDFDNPTKPEWYCIEGGTSLLVDAMKETLVHKVQNNKRVDAISIDLDAPDDGNMSVRIGGKDHSGYSTVFNTTALGCLDRMDLRGLNLHPTQADAIRCLHYDNSTKVALKFSYPWWIKDCGITCGGAASTDLPLRTCVYPSYNLDDTGEAVLLASYTWSQDATRIGSLVKDAPPQPPKEDELVELILQNLARLHAEHMTYEKIKEAYTGVYHAYCWANDPNVGGAFALFGPGQFSNLYPYLMRPAAGGKFHIVGEASSVHHAWIIGSLESAYTAVYQFLYKYKMWDYLRLLLERWQYGLQELETGKHGTAHLQFILGSLPKEYQVKI
B1: the “Lysine oxidase Sp. Act.” value in assay [1] (BSA) amounted to 12 U/μg protein; in assay [1] (corn protoplast extract, gut extract, about 22 hours at 25° C.), 1292 U/μg protein; in assay [1] (gut extract, protease inhibitor), 997 U/μg protein; in assay [1] (heated gut extract), 10 U/μg protein. Besides, the “Fold Difference” value in assay [1] (BSA, relative to heated gut extract) is 1.2; in assay [1] (gut extract, protease inhibitor, relative to heated gut extract), 97; in assay [1] (gut extract, relative to LO69 with heated gut extract), 130; in assay [1] (heated gut extract (reference)), 0. For the same molecule, the figures for the “Av. Wght” value in assay [2] (each protein at 2 ppm), in assay [2] (single protein at 10 ppm) and in assay [2] (single protein at 20 ppm) were 2.1 mg, 3.3 mg and 2.8 mg, respectively. Further, the Surv in assay [2] (each protein at 2 ppm, n 18) was 17; in assay [2] (single protein at 10 ppm), 17; in assay [2] (single protein at 20 ppm, n 18) it was 18. Besides, the “% inhibition” value came out at 20% in assay [2] (setting [3]), 0% in assay [2] (setting [4]) and 0% in assay [2] (single protein at 20 ppm).

B2: Mr 50,000: Mr 50,000 protein from F22844, tedanalactam synthase converting Δ1-piperideine-2-carboxylate to tedanalactam (protein)
chain: MADEIYDVVVIGGGPIGLAAAYEAAKEGAKVVVLEQNNFFNHAGSSNDLARMFRTMYTEDYMADLAKEALALWDDLERDSGTPLRWMSGLLNFGDKDYGGDTPEGTLLGPIANLDRLGMTYQELSAKEIEARYPFKNLDPKYIGLFAPDNGLINVQLLLRTLYKLSLDYGATAKQHTKVQAIKPSNHSHYAWDVHAIRHETEAAVFKAKKIIIASGAYVNHVLKPSFDISLDLDIWEMVFSYFNCNAGPKGTIFPSMWFQFAPDKNGRSQLFYGFPALPWGPPNLARIAVDAATRRIKDPNERLTSTINPEDIADTQEFIRNHCVNVDPTIPALTSSCLQTNVFDNMFVLDFVPEKYLNGGAKDSVVVFTAGWAMKFVPMIGKALADMALKGSSPYARKEFAITRTDSATGKGIIVEGGSENRSVKSSAFVFYSPGIRFFVCRLP
As to B2, the “% Stunting” value with southern corn rootworm (Table 2a, Mr 56,000 10 μg/mL, Mr 50,000 1.5 μg/mL, alone or combined, NSS = not statistically significant) is reported as “NSS”; in the assay on southern corn rootworm (Table 3, native PAGE purified, Mr 56,000 9.7 μg/mL, Mr 50,000 2.5 μg/mL, alone or combined) it was “NSS”; in the assay on southern corn rootworm (second table headed TABLE 2a, Mr 56,000 10 μg/mL, Mr 50,000 1.5 μg/mL, NSS = not statistically significant) it was “NSS”. In addition, in the assay with southern corn rootworm (Table 12, SCRW neonate, T. viride lysine oxidase 10 ppm, E. coli produced Mr 50,000 18 ppm, alone or combined, buffer 0.68, 0.57), the “Mean larval wt. (mg) (+SEM)” value amounted to 0.52 ± 0.03 mg. For the same molecule, the “# of survivors” value in the assay with southern corn rootworm (Table 12, SCRW neonate, T. viride lysine oxidase 10 ppm, E. coli produced Mr 50,000 18 ppm, alone or combined, buffer 51, 52) is given as 80; with corn rootworm (16 wells/sample, buffer 61, 45), 43. Besides, the “Av. Wght” value in assay [2] (each protein at 2 ppm) stood at 3.5 mg; in assay [2] (single protein at 10 ppm), 1.5 mg. The Surv in assay [2] (each protein at 2 ppm, n 18) is reported as 18; in assay [2] (single protein at 10 ppm) it was 18. Further, the “% inhibition” value amounted to 0% in assay [2] (setting [3]) and 39% in assay [2] (setting [4]). Also, the “Mean larval wt. (mg) (±SEM)” value in the assay with corn rootworm (buffer 0.94, 0.84) was 0.80 ± 0.07 mg.

These data come from US6372211B1, “Methods and compositions for controlling insects” (Monsanto Technolgy LLC, priority 1997, dated 2002).
